Data from patent US20130295102A1 (Novartis, published 2013).

B1: NVS804 (Fab, V domains shown)
VH: EVQLVQSGAEVKKPGSSVKVSCKASGGTFSSYAISWVRQAPGQGLEWMGRIIPIFGTANYAQKFQGRVTITADESTSTAYMELSSLRSEDTAVYYCARHGGYIFDSWGQGTLVTVSS
VL: SYVLTQPPSVSVAPGKTARISCSGDNLGSKYVDWYQQKPGQAPVLVIYSDNNRPSGIPERFSGSNSGNTATLTISGTQAMDEADYYCATYDSSPRTEVFGGGTKLTVLG
B2: NVS805 (Fab, V domains shown)
VH: EVQLVQSGAEVKKPGSSVKVSCKASGGTFSSYAISWVRQAPGQGLEWMGRIIPIFGTANYAQKFQGRVTITADESTSTAYMELSSLRSEDTAVYYCARHGGYVFDSWGQGTLVTVSS
VL: SYVLTQPPSVSVAPGKTARISCSGDNLGSKYVDWYQQKPGQAPVLVIYSDNNRPSGIPERFSGSNSGNTATLTISGTQAMDEADYYCATYDSSPRTEVFGGGTKLTVLG
B3: NVS806 (Fab, V domains shown)
VH: EVQLVQSGAEVKKPGSSVKVSCKASGGTFSSYAISWVRQAPGQGLEWMGRIIPIFGTANYAQKFQGRVTITADESTSTAYMELSSLRSEDTAVYYCARHGGYVFDSWGQGTLVTVSS
VL: SYELTQPPSVSVAPGQTARISCSGDNLGSKYVDWYQQKPGQAPVLVIYSDNNRPSGIPERFSGSNSGNTATLTISGTQAEDEADYYCQTYTSGNNYLVFGGGTKLTVLG
B4: NVS807 (Fab, V domains shown)
VH: EVQLVQSGAEVKKPGSSVKVSCKASGGTFSSYAISWVRQAPGQGLEWMGRIIPIFGTANYAQKFQGRVTITADESTSTAYMELSSLRSEDTAVYYCARHGGYYFDSWGQGTLVTVSS
VL: SYELTQPPSVSVAPGQTARISCSGDNLGSKYVDWYQQKPGQAPVLVIYSDNNRPSGIPERFSGSNSGNTATLTISGTQAEDEADYYCQTYTSGNNYLVFGGGTKLTVLG
B5: NVS808 (Fab, V domains shown)
VH: EVQLVQSGAEVKKPGSSVKVSCKASGGTFSSYAISWVRQAPGQGLEWMGRIIPIFGTANYAQKFQGRVTITADESTSTAYMELSSLRSEDTAVYYCARHGGYIFDSWGQGTLVTVSS
VL: SYELTQPPSVSVAPGQTARISCSGDNLGSKYVDWYQQKPGQAPVLVIYSDNNRPSGIPERFSGSNSGNTATLTISGTQAEDEADYYCQTYTSGNNYLVFGGGTKLTVLG
B6: NVS809 (Fab, V domains shown)
VH: EVQLVQSGAEVKKPGSSVKVSCKASGGTFSSYAISWVRQAPGQGLEWMGRIIPIFGTANYAQKFQGRVTITADESTSTAYMELSSLRSEDTAVYYCARHGGYYFDSWGQGTLVTVSS
VL: SYVLTQPPSVSVAPGKTARISCSGDNLGSKYVDWYQQKPGQAPVLVIYSDNNRPSGIPERFSGSNSGNTATLTISGTQAMDEADYYCATYDSSPRTEVFGGGTKLTVLG

Legend:
[1] = target: T1, Human Factor P (human, UniProt P27918 29-469); assay: Biacore SPR, captured Factor P
T1 construct: Bought protein (Complement Technology cat# A139) in SET and Biacore; Factor P of human serum in the functional assays; also called FP; human FP

[2] = target: T1, Human Factor P; assay: cell-based or functional assay
[3] = target: Cynomolgus Factor P (cynomolgus); assay: cell-based or functional assay
[4] = target: T1, Human Factor P; assay: SET, solution equilibrium titration
Experimental: In SET, a constant amount of antibody is incubated with different concentrations of antigen until equilibrium is reached. The concentration of free antibody in the equilibrated solution is determined by applying the solution on an antigen coated MSD™ plate (Meso Scale Discovery™) followed by incubation with an ECL-labeled secondary antibody and measurement of signal intensity. At low antigen concentrations, a strong signal is achieved (high concentration of free antibody which binds to the antigen on the plate) whereas for high antigen concentration, the antibody is completely antigen-captured, resulting in a low signal. If a sufficient number of antigen concentrations in a matching range are available, the titration curve allows for a reasonable determination of the affinity, using the appropriate fit model. […] The constant concentration of antibody applied in the assay should be in the range of, or below, the KD (Table 4).
Human Factor P (Complement Technology cat#: A139) and Cyno Factor P purified from cyno serum (protocol adapted from Nakano, et al., (1986) J Immunol Methods 90:77-83) were coated on standard binding MSD plates (Meso-Scale Discovery, 384-well: MSD cat#: L21XA, 96-well: MSD cat#: L15XA) at 0.2-0.3 μg/ml in 25 μl PBS and incubated overnight at 4° C. Factor P inhibitors were diluted to a fixed concentration (1 pM or 10 pM) in incubation buffer (PBS with 2% BSA (Sigma cat#: A4503) and 1% Tween20 and 1% Triton-X (Sigma cat#: 234729)), and added to a serial dilution of Factor P (human or cyno) in incubation buffer. Samples were allowed to reach equilibrium by incubation at RT overnight. Plates were washed 3× in wash buffer (PBS with 0.05% Tween20), and blocked with 100 μl incubation buffer at RT for 2 hrs. Plates were washed 3× in wash buffer. Sample containing Factor P inhibitors and Factor P titration were added to the plate (25 μl), and incubated at RT for 15 min. Plates were washed 3× in wash buffer. 25 μl detection antibody was added (Anti-Human (Goat) Sulfo-TAG, 1:1000 in incubation buffer, MSD cat#: R32AJ-1), and incubated at RT for 60 min. Plates were washed 3× in wash buffer, and 50 μl of 1×MSD Read buffer T was added (with surfactant, MSD cat#: R92TC-1). Plates were read on a MSD Spector Imager 6000.

T1 sequence (P27918 29-469 limits assumed): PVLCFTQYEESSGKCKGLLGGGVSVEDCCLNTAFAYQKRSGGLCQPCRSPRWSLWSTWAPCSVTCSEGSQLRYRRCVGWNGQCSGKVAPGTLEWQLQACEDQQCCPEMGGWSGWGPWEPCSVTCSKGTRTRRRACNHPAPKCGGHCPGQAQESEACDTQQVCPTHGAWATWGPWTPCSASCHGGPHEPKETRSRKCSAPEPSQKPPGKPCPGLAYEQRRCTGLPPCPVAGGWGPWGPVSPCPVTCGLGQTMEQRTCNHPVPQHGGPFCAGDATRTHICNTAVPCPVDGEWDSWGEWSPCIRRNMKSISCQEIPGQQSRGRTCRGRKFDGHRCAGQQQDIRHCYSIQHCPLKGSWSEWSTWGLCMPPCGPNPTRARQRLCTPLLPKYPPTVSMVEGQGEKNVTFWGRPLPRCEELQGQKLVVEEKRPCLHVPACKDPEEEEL

| Binder | Kd [1] [nM] | koff [1] [s⁻¹] | kon [1] [M⁻¹ s⁻¹] | Hemolytic assay IC50 (nM), 10% serum [2] [nM] | MAC Deposition, 20% Serum EC50 [2] [nM] | Hemolytic assay IC50 (nM), 10% serum [3] [nM] | MAC Deposition, 20% Serum EC50 [3] [nM] | Kd [4] [nM] |
| --- | --- | --- | --- | --- | --- | --- | --- | --- |
| B1 | 0.005 | 1.29e-05 | 2.72e+06 | 12.4 | 5.85 | 14.4 | 8.51 | 0.0008 |
| B2 | 0.003 | 9.88e-06 | 3.61e+06 | 12.8 | 5.9 | 22.1 | 5.95 | 0.0003 |
| B3 | 0.052 | 2.24e-05 | 434000 | 10.1 | 5.74 | 13.9 | 6.51 | 0.018 |
| B4 | 0.106 | 0.000123 | 1.21e+06 | 12.9 | 5.4 | 12.6 | 6.35 | 0.027 |
| B5 | 0.195 | 0.000154 | 791000 | 13.3 | 6.51 | 15.5 | 8.38 | 0.107 |
| B6 | 0.0247 | 0.000104 | 4.25e+06 | 12.1 | 6.46 | 12.8 | 5.9 | 0.0042 |
